System: Hartley guinea pigs
Assay: Systemic active allergic reaction test in guinea pigs
Assay type: in vivo, guinea pig
Details: 40 mg/mL
Text: Systemic active allergic reaction test in guinea pigs: Hartley guinea pigs, SPF grade, source: Beijing Vital River Laboratory Animal Technology Co., Ltd., animal production license No.: SCXK (JING) 2016-0011, test animal certification No.: No. 110011201110221326, issuer: Beijing Science and Technology Commission, age at the start of administration: 5-6 weeks.
Guinea pigs were sensitized by intraperitoneal injection of the sample of Example 2 and Addaven every other day for three consecutive days. In the allergic reaction test, 0.9% sodium chloride injection (Lot No.: 6B20060706, Shandong Qidu Pharmaceutical Co., Ltd.) was selected as the compatibility solution. Test sample low-dose group was administered with the clinically intended concentration of the test sample solution, and test sample high-dose group was administered with twice the concentration of the test sample solution. The administration volume was 0.5 mL/animal for each group. On the 14th and 21st days after the last sensitization, twice the sensitization dose of the product was intravenously injected for irritation, respectively.
Negative control group: 0.9% sodium chloride injection; […]

bovine serum albumin
allergic reactions (irritation on the 14th day after the last sensitization): strongly positive to extremely strong positive
allergic reactions (irritation on the 21st day after the last sensitization): strongly positive to extremely strong positive

From patent publication US20260216058A1, “TRACE ELEMENT COMPOSITION, PREPARATION METHOD THEREFOR, AND USE THEREOF” (BEIJING ZANGWEIXINKANG PHARMACEUTICAL R&D CO., LTD., priority 2023, published 2026)
